The term Km denotes the concentration of substrate that gives half-maximal velocity.

Where “and” joins values, the source holds several entries; their conditions need not be identical. Identical values can stand only once. Entries after “also recorded” stand apart in the source; their conditions may differ.

The source of these data is patent publication US6261814A, “Carboxylic acid reductase, and methods of using same” (University of Iowa Research Foundation, priority 1998, dated 2001).

The target of data set [1] is T1, carboxylic acid reductase (Nocardia iowensis, UniProt Q6RKB1).
T1 construct: isolated and substantially purified from Nocardia sp. strain NRRL 5646; endogenous in cells; host or cells: Nocardia sp; NRRL 5646, benzoate-induced culture; enzyme purified by Mono-Q, Reactive Green 19 agarose and hydroxyapatite chromatography
The experiment in a line: Enzymatic reduction of vanillic acid to vanillin by purified carboxylic acid reductase. The format is biochemical, Nocardia sp. NRRL 5646. The procedure: The reaction mixture was incubated at 30° C. with gentle shaking for 24 hours, after which the entire reaction mixture was loaded onto a solid phase extraction cartridge (Chem Elut 1200, 200 ml aqueous solution capacity). After 5 min. of equilibration, the cartridge was washed with 2×100 ml of hexane, then washed again with 2×100 ml of dichloromethane (concentrated to less than 2 ml).
The extract was then transferred to a vial and the solvent was removed with a stream of nitrogen to give about 8 mg of the purified vanillin end product.
Mass spectrometry, ^1 H, and ^13 C NMR data confirmed that this compound was vanillin. The yield was determined to be 96% with UV spectrophotometric assay at 340 nm.

The target of data set [2] is T1, carboxylic acid reductase. The experiment in a line: Rate of carboxylic acid reduction after o-benzylation of vanillic acid (unpublished data). Particulars: substrate concentration 5 mM. It counts as biochemical, Nocardia sp. NRRL 5646.
Data set [3] concerns CC(C)Cc1ccc([C@@H](C)C(=O)O)cc1. The experiment in a line: purified protein, by the assay type. Particulars: other: purified enzyme; mean of three determinations; pH 7.5; 25.0 °C.
Data set [4] relates to CC(C)Cc1ccc([C@H](C)C(=O)O)cc1. The experiment in a line: purified protein, by the assay type. Particulars: other: purified enzyme; mean of three determinations; pH 7.5; 25.0 °C.
Data set [5] has as its system NC(=O)C1=CN([C@@H]2O[C@H](COP(=O)(O)OP(=O)(O)OC[C@H]3O[C@@H](n4cnc5c(N)ncnc54)[C@H](OP(=O)(O)O)[C@@H]3O)[C@@H](O)[C@H]2O)C=CC1. The experiment in a line: purified protein, by the assay type. Particulars: other: purified enzyme; mean of three determinations; pH 7.5; 25.0 °C.
Data set [6] relates to Nc1ncnc2c1ncn2[C@@H]1O[C@H](COP(=O)(O)OP(=O)(O)OP(=O)(O)O)[C@@H](O)[C@H]1O. As to the kind of experiment: purified protein, by the assay type. Particulars: other: purified enzyme; mean of three determinations; pH 7.5; 25.0 °C.
Data set [7] addresses T1, carboxylic acid reductase. The experiment in a line: 13C NMR study of benzoyl-AMP reduction by purified carboxylic acid reductase. The format is biochemical, Nocardia sp. NRRL 5646. The conditions noted are these: 1.4 mM benzoyl-AMP, 2.0 mM NADPH, 20 min. at 20° C. Here is the method:
Using carboxyl-^13 C labeled benzoyl-AMP, synthesized as described in Example 1, the reduction of benzoyl-AMP to benzaldehyde with the substantially purified carboxylic acid reductase from Nocardia sp. NRRL 5646 was investigated with ^13 C NMR spectroscopy (see, FIG. 1). The substantially purified carboxylic acid reductase from Nocardia sp. NRRL 5646 and all other reagents were prepared or obtained in Example 1.
A 10 μl sample (0.05 units) of the substantially purified carboxylic acid reductase was added to initiate the reaction. A control sample was prepared containing everything except the enzyme. After 20 min. incubation at 20° C., the samples were subjected to NMR analysis. For ^13 C NMR spectroscopy, […] D2 O was added as the locking solvent, and […] of dioxane was added as an internal standard (67.4 ppm). NMR spectra were obtained with a Bruker WM 360-MHZ high-field spectrometer equipped with an IBM Aspect-2000 processor.

The target of data set [8] is T2, carboxylic acid reductase (aryl aldehyde oxidoreductase) (Nocardia iowensis, UniProt Q6RKB1). As to the kind of experiment: Kinetic properties of the purified carboxylic acid reductase (standard enzyme assay). Particulars: higher than values reported by Kato et al. Here is the method:
(§1) Enzyme assay. The standard aryl-aldehyde oxidoreductase assay solution contained 0.15 mM […], 1 mM ATP, and 5 mM sodium benzoate, 10 mM MgCl2 and 0.01 to 0.3 units of enzyme in 50 mM Tris-HCl buffer in a final volume of 0.7 ml. The reference cuvette contained all components except for benzoate. Enzyme reactions were initiated by adding enzyme, and they were monitored by recording the absorption decrease at 340 nm at 25° C. with a Shimadzu 160 spectrophotometer.
Kinetic constants were obtained by fitting experimental data with the EZ-FIT program developed by Perrella (Perrella, Anal. Biochem. 174:437-447 (1987)).
S(+)-α-Methyl-4-[2-methylpropyl]-benzeneacetic acid (ibuprofen) was from Aldrich Chemical Co. R(-) isomer of ibuprofen was a gift from Dr. Ching-Shih Chen, University of Rhode Island (Chen et al., Biochim. Biophys. Acta 1033:1-6 (1990)). […] Substrate enantiopurities were checked by specific rotation determination for each isomer (Chen and Rosazza, Appl. Environ. Microbiol. 60(4):1292-1296 (1994)).

The nature of data set [9]: Stability of the purified enzyme in buffer. It counts as physicochemical. Particulars: 50 mM pH 7.5 Tris-HCl buffer, 10% glycerol, 8 hr at 4° C. Here is the method:
Properties of the carboxylic acid reductase (aryl-aldehyde oxidoreductase).Inclusion of 10% glycerol in all chromatographic buffers was used to stabilize the enzyme. Nevertheless, the purified enzyme in 50 mM pH 7.5 Tris-HCl buffer, containing 10% glycerol, lost nearly […] of its activity in 8 hr at 4° C.

Data set [10] addresses T2, carboxylic acid reductase (aryl aldehyde oxidoreductase). As to the kind of experiment: Standard aryl-aldehyde oxidoreductase assay: specific activity of the purified enzyme. It counts as biochemical, Nocardia sp. NRRL 5646. Also noted: isolated and substantially purified from Nocardia sp. strain NRRL 5646; endogenous in cells; host or cells: Nocardia sp; NRRL 5646, benzoate-induced culture; enzyme purified by Mono-Q, Reactive Green 19 agarose and hydroxyapatite chromatography. Particulars: after hydroxyapatite step. Here is the method: as §1, with “spectrophotometer. One unit of the carboxylic acid reductase (aryl-aldehyde oxidoreductase) is defined as the amount of enzyme that catalyzes the reduction of 1 μmol benzoate to benzaldehyde per min. under standard assay conditions.” for “spectrophotometer.”
Protein assay. The concentration of protein was measured by the Bradford protein microassay (Bradford, Anal. Biochem. 72:248-254 (1976)), with bovine serum albumin as the standard.

T1 sequence (Q6RKB1 whole entry): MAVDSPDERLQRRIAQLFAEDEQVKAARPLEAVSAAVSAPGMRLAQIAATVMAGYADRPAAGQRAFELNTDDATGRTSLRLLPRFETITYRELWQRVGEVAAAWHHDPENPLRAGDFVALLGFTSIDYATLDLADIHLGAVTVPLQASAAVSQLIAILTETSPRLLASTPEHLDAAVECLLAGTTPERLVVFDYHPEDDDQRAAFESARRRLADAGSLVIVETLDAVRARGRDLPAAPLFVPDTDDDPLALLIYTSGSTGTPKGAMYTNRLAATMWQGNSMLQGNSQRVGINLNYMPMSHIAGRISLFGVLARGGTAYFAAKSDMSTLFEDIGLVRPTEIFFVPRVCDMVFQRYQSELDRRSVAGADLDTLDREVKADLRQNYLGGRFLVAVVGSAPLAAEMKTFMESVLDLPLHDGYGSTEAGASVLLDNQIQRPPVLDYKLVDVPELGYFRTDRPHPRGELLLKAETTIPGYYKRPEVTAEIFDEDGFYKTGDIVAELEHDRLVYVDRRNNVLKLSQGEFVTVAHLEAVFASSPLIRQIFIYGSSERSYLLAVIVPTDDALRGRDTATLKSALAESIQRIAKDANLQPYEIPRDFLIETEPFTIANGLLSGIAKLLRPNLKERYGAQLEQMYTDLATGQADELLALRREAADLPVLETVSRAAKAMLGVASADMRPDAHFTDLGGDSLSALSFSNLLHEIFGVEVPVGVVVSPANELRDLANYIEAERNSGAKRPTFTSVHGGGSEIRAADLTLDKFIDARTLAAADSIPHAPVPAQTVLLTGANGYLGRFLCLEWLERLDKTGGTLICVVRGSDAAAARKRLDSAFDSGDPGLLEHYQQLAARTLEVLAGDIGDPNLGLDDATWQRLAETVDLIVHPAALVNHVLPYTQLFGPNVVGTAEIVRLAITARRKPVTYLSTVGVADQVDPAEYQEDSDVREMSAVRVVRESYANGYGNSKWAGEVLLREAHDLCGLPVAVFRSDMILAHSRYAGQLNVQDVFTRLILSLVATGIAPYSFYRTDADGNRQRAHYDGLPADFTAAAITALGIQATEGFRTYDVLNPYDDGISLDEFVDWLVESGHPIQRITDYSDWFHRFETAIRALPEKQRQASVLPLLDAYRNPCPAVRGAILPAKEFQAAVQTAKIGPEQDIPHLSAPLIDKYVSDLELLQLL
T2 sequence (Q6RKB1 whole entry): as above

Consider `COc1cc(C(=O)O)ccc1O` [vanillic acid, 4-hydroxy-3-methoxybenzoic acid], for which the “transformation from vanillic acid to vanillin” value in data set [1] (with ATP and NADPH, purified enzyme) is given as “quantitative”. For the same molecule, in data set [2], the “increase in the rate of carboxylic acid reduction as a result of o-benzylation” value was “more than 15 fold”. Consider “carboxylic acid reductase (aryl-aldehyde oxidoreductase) (Nocardia iowensis)”, for which the Km in data set [3] was 34.5 µM; in data set [4], 155 µM; in data set [5] it was 29.3 µM and 57.3 ± 12.5 µM; in [6], 57.3 µM and 29.3 ± 3.1 µM. For the molecule `Nc1ncnc2c1ncn2[C@@H]1O[C@H](COP(=O)(O)OC(=O)c2ccccc2)[C@@H](O)[C@H]1O` [benzoyl AMP], the “reduction of benzoyl-AMP to benzaldehyde” value in [7] is reported as “completely reduced; also recorded: quantitatively reduced”. For `COc1cc(C=O)ccc1O` [vanillin, 4-hydroxy-3-methoxy-benzaldehyde], in [1] (UV spectrophotometric assay at 340 nm, 30° C., 24 hours), the yield of vanillin is reported as 96%.

Take `NC(=O)C1=CN([C@@H]2O[C@H](COP(=O)(O)OP(=O)(O)OC[C@H]3O[C@@H](n4cnc5c(N)ncnc54)[C@H](OP(=O)(O)O)[C@@H]3O)[C@@H](O)[C@H]2O)C=CC1` [NADPH]: the “apparent Km relative to Km reported for the enzyme from Nocardia asteroides” value in data set [8] is “more than 1000 fold”.

B1: Purified carboxylic acid reductase: carboxylic acid reductase (aryl-aldehyde oxidoreductase) isolated and purified from Nocardia sp. strain NRRL 5646 (protein, UniProt Q6RKB1 2-1174, looked up)
Carboxylic acid reductase: AVDSPDERLQRRIAQLFAEDEQVKAARPLEAVSAAVSAPGMRLAQIAATVMAGYADRPAAGQRAFELNTDDATGRTSLRLLPRFETITYRELWQRVGEVAAAWHHDPENPLRAGDFVALLGFTSIDYATLDLADIHLGAVTVPLQASAAVSQLIAILTETSPRLLASTPEHLDAAVECLLAGTTPERLVVFDYHPEDDDQRAAFESARRRLADAGSLVIVETLDAVRARGRDLPAAPLFVPDTDDDPLALLIYTSGSTGTPKGAMYTNRLAATMWQGNSMLQGNSQRVGINLNYMPMSHIAGRISLFGVLARGGTAYFAAKSDMSTLFEDIGLVRPTEIFFVPRVCDMVFQRYQSELDRRSVAGADLDTLDREVKADLRQNYLGGRFLVAVVGSAPLAAEMKTFMESVLDLPLHDGYGSTEAGASVLLDNQIQRPPVLDYKLVDVPELGYFRTDRPHPRGELLLKAETTIPGYYKRPEVTAEIFDEDGFYKTGDIVAELEHDRLVYVDRRNNVLKLSQGEFVTVAHLEAVFASSPLIRQIFIYGSSERSYLLAVIVPTDDALRGRDTATLKSALAESIQRIAKDANLQPYEIPRDFLIETEPFTIANGLLSGIAKLLRPNLKERYGAQLEQMYTDLATGQADELLALRREAADLPVLETVSRAAKAMLGVASADMRPDAHFTDLGGDSLSALSFSNLLHEIFGVEVPVGVVVSPANELRDLANYIEAERNSGAKRPTFTSVHGGGSEIRAADLTLDKFIDARTLAAADSIPHAPVPAQTVLLTGANGYLGRFLCLEWLERLDKTGGTLICVVRGSDAAAARKRLDSAFDSGDPGLLEHYQQLAARTLEVLAGDIGDPNLGLDDATWQRLAETVDLIVHPAALVNHVLPYTQLFGPNVVGTAEIVRLAITARRKPVTYLSTVGVADQVDPAEYQEDSDVREMSAVRVVRESYANGYGNSKWAGEVLLREAHDLCGLPVAVFRSDMILAHSRYAGQLNVQDVFTRLILSLVATGIAPYSFYRTDADGNRQRAHYDGLPADFTAAAITALGIQATEGFRTYDVLNPYDDGISLDEFVDWLVESGHPIQRITDYSDWFHRFETAIRALPEKQRQASVLPLLDAYRNPCPAVRGAILPAKEFQAAVQTAKIGPEQDIPHLSAPLIDKYVSDLELLQLL
Turning to B1, the loss of activity in [9] was about 250%. In data set [10], the specific activity is reported as 5.9 units/mg of protein.
